The target of test [1] is T1, human FcγRIIA-R131 α subunit extracellular domain-His6-GST fusion (human, UniProt P12318 34-217).
T1 construct: ECD-6His-GST fusion made in 293 cells; also called FcγRIIA-Arg131; not shown: glutathione S transferase (GST)
T1 sequence: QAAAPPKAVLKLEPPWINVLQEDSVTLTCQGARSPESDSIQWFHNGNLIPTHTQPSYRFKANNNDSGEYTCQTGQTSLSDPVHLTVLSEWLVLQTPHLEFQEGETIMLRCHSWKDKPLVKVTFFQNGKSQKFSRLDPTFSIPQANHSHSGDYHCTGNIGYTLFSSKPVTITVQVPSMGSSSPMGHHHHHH
In words: ELISA, IgG complex, receptor coated. (In general: In an ELISA, binding on a coated surface is turned into a signal by an enzyme label.)

Test [2] concerns the target T2, human FcγRIIIA-V158 α subunit extracellular domain-His6-GST fusion (human, UniProt P08637 17-208).
T2 construct: ECD-6His-GST fusion made in 293 cells; also called FcγRIIIA-Val158; not shown: glutathione S transferase (GST)
In words: ELISA, IgG complex, receptor coated.

Test [3] addresses T3, human FcγRIIIA-F158 α subunit extracellular domain-His6-GST fusion (human, UniProt P08637 17-208).
T3 construct: ECD-6His-GST fusion made in 293 cells; also called FcγRIIIA-Phe158; not shown: glutathione S transferase (GST)
The experiment in a line: ELISA, IgG complex, receptor coated.

The target in test [4] is T2, human FcγRIIIA-V158 α subunit …. The experiment in a line: ELISA, IgG monomer, receptor coated.

T2 sequence (P08637 other isoform, or with tags, fused parts or gaps, form in doubt): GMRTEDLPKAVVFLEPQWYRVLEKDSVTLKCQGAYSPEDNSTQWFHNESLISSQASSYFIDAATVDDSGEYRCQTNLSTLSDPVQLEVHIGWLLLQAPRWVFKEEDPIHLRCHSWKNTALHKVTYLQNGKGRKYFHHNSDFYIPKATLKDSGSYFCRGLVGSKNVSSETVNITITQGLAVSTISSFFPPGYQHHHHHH
T3 sequence (P08637 other isoform, or with tags, fused parts or gaps, form in doubt): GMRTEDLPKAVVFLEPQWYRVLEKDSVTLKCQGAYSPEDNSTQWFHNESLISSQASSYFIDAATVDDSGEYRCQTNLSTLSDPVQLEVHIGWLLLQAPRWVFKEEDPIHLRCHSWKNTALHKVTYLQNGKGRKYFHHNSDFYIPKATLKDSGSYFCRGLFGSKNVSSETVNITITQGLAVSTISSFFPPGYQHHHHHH

B1: anti-IgE E27 IgG1 variant K334(353)L (antibody)
heavy: not shown
light: DIQLTQSPSSLSASVGDRVTITCRASKPVDGEGDSYLNWYQQKPGKAPKLLIYAASYLESGVPSRFSGSGSGTDFTLTISSLQPEDFATYYCQQSHEDPYTFGQGTKVEIKRTVAAPSVFIFPPSDEQLKSGTASVVCLLNNFYPREAKVQWKVDNALQSGNSQESVTEQDSKDSTYSLSSTLTLSKADYEKHKVYACEVTHQGLSSPVTKSFNRGEC
notes: Fc variant of E27; also called IG2 221
For B1, the “ratio of binding, variant/native IgG1 (mean)” value in test [1] came to 1.05 ratio; in test [2], 0.96 ratio; in test [3], 1.38 ratio; in test [4], 3.59 ratio.

B2: anti-IgE E27 IgG1 variant K334(353)Y (antibody)
heavy: not shown
light: DIQLTQSPSSLSASVGDRVTITCRASKPVDGEGDSYLNWYQQKPGKAPKLLIYAASYLESGVPSRFSGSGSGTDFTLTISSLQPEDFATYYCQQSHEDPYTFGQGTKVEIKRTVAAPSVFIFPPSDEQLKSGTASVVCLLNNFYPREAKVQWKVDNALQSGNSQESVTEQDSKDSTYSLSSTLTLSKADYEKHKVYACEVTHQGLSSPVTKSFNRGEC
notes: Fc variant of E27
In the case of B2, the “ratio of binding, variant/native IgG1 (mean)” value is 1.08 ratio in test [1], 0.98 ratio in test [2], 1.31 ratio in test [3] and 1.72 ratio in test [4].

B3: anti-IgE E27 IgG1 variant K334(353)V (antibody)
heavy: not shown
light: DIQLTQSPSSLSASVGDRVTITCRASKPVDGEGDSYLNWYQQKPGKAPKLLIYAASYLESGVPSRFSGSGSGTDFTLTISSLQPEDFATYYCQQSHEDPYTFGQGTKVEIKRTVAAPSVFIFPPSDEQLKSGTASVVCLLNNFYPREAKVQWKVDNALQSGNSQESVTEQDSKDSTYSLSSTLTLSKADYEKHKVYACEVTHQGLSSPVTKSFNRGEC
notes: Fc variant of E27; also called IG2 220
For B3, the “ratio of binding, variant/native IgG1 (mean)” value in test [1] was found to be 1.13 ratio; in test [2], 1 ratio; in test [3] it was 1.34 ratio; in test [4] it was 2.89 ratio.

B4: anti-IgE E27 IgG1 variant K334(353)M (antibody)
heavy: not shown
light: DIQLTQSPSSLSASVGDRVTITCRASKPVDGEGDSYLNWYQQKPGKAPKLLIYAASYLESGVPSRFSGSGSGTDFTLTISSLQPEDFATYYCQQSHEDPYTFGQGTKVEIKRTVAAPSVFIFPPSDEQLKSGTASVVCLLNNFYPREAKVQWKVDNALQSGNSQESVTEQDSKDSTYSLSSTLTLSKADYEKHKVYACEVTHQGLSSPVTKSFNRGEC
notes: Fc variant of E27; also called IG2 190
For B4, the “ratio of binding, variant/native IgG1 (mean)” value is 1.06 ratio in test [1], 0.99 ratio in test [2], 1.35 ratio in test [3] and 2.08 ratio in test [4].

B5: anti-IgE E27 IgG1 variant K334(353)S (antibody)
heavy: not shown
light: DIQLTQSPSSLSASVGDRVTITCRASKPVDGEGDSYLNWYQQKPGKAPKLLIYAASYLESGVPSRFSGSGSGTDFTLTISSLQPEDFATYYCQQSHEDPYTFGQGTKVEIKRTVAAPSVFIFPPSDEQLKSGTASVVCLLNNFYPREAKVQWKVDNALQSGNSQESVTEQDSKDSTYSLSSTLTLSKADYEKHKVYACEVTHQGLSSPVTKSFNRGEC
notes: Fc variant of E27
Consider B5, for which the “ratio of binding, variant/native IgG1 (mean)” value in test [1] was 1.01 ratio; in test [2] it was 1.25 ratio; in test [3] it was 1.19 ratio; in test [4], 1.82 ratio.

B6: anti-IgE E27 IgG1 variant K334(353)N (antibody)
heavy: not shown
light: DIQLTQSPSSLSASVGDRVTITCRASKPVDGEGDSYLNWYQQKPGKAPKLLIYAASYLESGVPSRFSGSGSGTDFTLTISSLQPEDFATYYCQQSHEDPYTFGQGTKVEIKRTVAAPSVFIFPPSDEQLKSGTASVVCLLNNFYPREAKVQWKVDNALQSGNSQESVTEQDSKDSTYSLSSTLTLSKADYEKHKVYACEVTHQGLSSPVTKSFNRGEC
notes: Fc variant of E27
As to B6, the “ratio of binding, variant/native IgG1 (mean)” value in test [1] was 1.16 ratio; in test [2], 1.19 ratio; in test [3], 1.15 ratio; in test [4], 1.7 ratio.

B7: anti-IgE E27 IgG1 variant P331(350)A (antibody)
heavy: not shown
light: DIQLTQSPSSLSASVGDRVTITCRASKPVDGEGDSYLNWYQQKPGKAPKLLIYAASYLESGVPSRFSGSGSGTDFTLTISSLQPEDFATYYCQQSHEDPYTFGQGTKVEIKRTVAAPSVFIFPPSDEQLKSGTASVVCLLNNFYPREAKVQWKVDNALQSGNSQESVTEQDSKDSTYSLSSTLTLSKADYEKHKVYACEVTHQGLSSPVTKSFNRGEC
notes: Fc variant of E27; also called IG2 65; Pro331Ala
As to B7, the “ratio of binding, variant/native IgG1 (mean)” value in test [1] stood at 1.29 ratio; in test [2], 0.96 ratio; in test [3], 1.03 ratio; in test [4], 0.78 ratio.

B8: anti-IgE E27 IgG1 variant S298(317)G (antibody)
heavy: not shown
light: DIQLTQSPSSLSASVGDRVTITCRASKPVDGEGDSYLNWYQQKPGKAPKLLIYAASYLESGVPSRFSGSGSGTDFTLTISSLQPEDFATYYCQQSHEDPYTFGQGTKVEIKRTVAAPSVFIFPPSDEQLKSGTASVVCLLNNFYPREAKVQWKVDNALQSGNSQESVTEQDSKDSTYSLSSTLTLSKADYEKHKVYACEVTHQGLSSPVTKSFNRGEC
notes: Fc variant of E27; also called IG2 70
Consider B8, for which the “ratio of binding, variant/native IgG1 (mean)” value in test [1] came out at 0.87 ratio; in test [2], 0.88 ratio; in test [3] it was 0.46 ratio; in test [4], 1.88 ratio.

B9: anti-IgE E27 IgG1 variant S298(317)A (antibody)
heavy: not shown
light: DIQLTQSPSSLSASVGDRVTITCRASKPVDGEGDSYLNWYQQKPGKAPKLLIYAASYLESGVPSRFSGSGSGTDFTLTISSLQPEDFATYYCQQSHEDPYTFGQGTKVEIKRTVAAPSVFIFPPSDEQLKSGTASVVCLLNNFYPREAKVQWKVDNALQSGNSQESVTEQDSKDSTYSLSSTLTLSKADYEKHKVYACEVTHQGLSSPVTKSFNRGEC
notes: Fc variant of E27; also called IG2 36; G36
Consider B9, for which the “ratio of binding, variant/native IgG1 (mean)” value in test [1] stood at 0.4 ratio; in test [2] it was 1.02 ratio; in test [3], 1.3 ratio; in test [4] it was 1.96 ratio.

B10: anti-IgE E27 IgG1 variant K334(353)Q (antibody)
heavy: not shown
light: DIQLTQSPSSLSASVGDRVTITCRASKPVDGEGDSYLNWYQQKPGKAPKLLIYAASYLESGVPSRFSGSGSGTDFTLTISSLQPEDFATYYCQQSHEDPYTFGQGTKVEIKRTVAAPSVFIFPPSDEQLKSGTASVVCLLNNFYPREAKVQWKVDNALQSGNSQESVTEQDSKDSTYSLSSTLTLSKADYEKHKVYACEVTHQGLSSPVTKSFNRGEC
notes: Fc variant of E27
For the molecule B10, the “ratio of binding, variant/native IgG1 (mean)” value was determined as 1.08 ratio in test [1], 1.27 ratio in test [2], 1.31 ratio in test [3] and 1.92 ratio in test [4].

B11: anti-IgE E27 IgG1 variant K334(353)W (antibody)
heavy: not shown
light: DIQLTQSPSSLSASVGDRVTITCRASKPVDGEGDSYLNWYQQKPGKAPKLLIYAASYLESGVPSRFSGSGSGTDFTLTISSLQPEDFATYYCQQSHEDPYTFGQGTKVEIKRTVAAPSVFIFPPSDEQLKSGTASVVCLLNNFYPREAKVQWKVDNALQSGNSQESVTEQDSKDSTYSLSSTLTLSKADYEKHKVYACEVTHQGLSSPVTKSFNRGEC
notes: Fc variant of E27
For the molecule B11, the “ratio of binding, variant/native IgG1 (mean)” value was determined as 0.94 ratio in test [1], 0.96 ratio in test [2], 1.07 ratio in test [3] and 1.53 ratio in test [4].
